Results reported in patent US7109299 (dated 2006).
One block for each binder: values may come before it. Bridge positions count the residues as written; N and C are the ends. Square brackets hold non-standard residues; d marks the D form. Ends that are not written are not given here. Dap = NC[C@H](N)C(=O)O; Ahx = NCCCCCC(=O)O

Assays:
[1] = molecular target: T1, native IL-5R α/β complex on cells (TF-1 cells; human eosinophils) (human, UniProt Q01344 21-420; P32927 17-897); test: cell-based or functional assay
T1 sequence (looked up) 1: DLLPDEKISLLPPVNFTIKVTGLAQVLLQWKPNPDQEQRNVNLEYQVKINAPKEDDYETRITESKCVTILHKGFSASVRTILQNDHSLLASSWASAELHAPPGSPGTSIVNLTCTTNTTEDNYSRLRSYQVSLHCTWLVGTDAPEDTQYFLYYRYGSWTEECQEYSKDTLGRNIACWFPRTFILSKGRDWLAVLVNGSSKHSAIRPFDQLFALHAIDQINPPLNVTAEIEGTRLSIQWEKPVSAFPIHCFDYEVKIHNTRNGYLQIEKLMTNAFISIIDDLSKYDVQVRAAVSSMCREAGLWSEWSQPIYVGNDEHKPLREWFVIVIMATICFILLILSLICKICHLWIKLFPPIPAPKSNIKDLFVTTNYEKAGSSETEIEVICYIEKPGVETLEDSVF
T1 sequence (looked up) 2: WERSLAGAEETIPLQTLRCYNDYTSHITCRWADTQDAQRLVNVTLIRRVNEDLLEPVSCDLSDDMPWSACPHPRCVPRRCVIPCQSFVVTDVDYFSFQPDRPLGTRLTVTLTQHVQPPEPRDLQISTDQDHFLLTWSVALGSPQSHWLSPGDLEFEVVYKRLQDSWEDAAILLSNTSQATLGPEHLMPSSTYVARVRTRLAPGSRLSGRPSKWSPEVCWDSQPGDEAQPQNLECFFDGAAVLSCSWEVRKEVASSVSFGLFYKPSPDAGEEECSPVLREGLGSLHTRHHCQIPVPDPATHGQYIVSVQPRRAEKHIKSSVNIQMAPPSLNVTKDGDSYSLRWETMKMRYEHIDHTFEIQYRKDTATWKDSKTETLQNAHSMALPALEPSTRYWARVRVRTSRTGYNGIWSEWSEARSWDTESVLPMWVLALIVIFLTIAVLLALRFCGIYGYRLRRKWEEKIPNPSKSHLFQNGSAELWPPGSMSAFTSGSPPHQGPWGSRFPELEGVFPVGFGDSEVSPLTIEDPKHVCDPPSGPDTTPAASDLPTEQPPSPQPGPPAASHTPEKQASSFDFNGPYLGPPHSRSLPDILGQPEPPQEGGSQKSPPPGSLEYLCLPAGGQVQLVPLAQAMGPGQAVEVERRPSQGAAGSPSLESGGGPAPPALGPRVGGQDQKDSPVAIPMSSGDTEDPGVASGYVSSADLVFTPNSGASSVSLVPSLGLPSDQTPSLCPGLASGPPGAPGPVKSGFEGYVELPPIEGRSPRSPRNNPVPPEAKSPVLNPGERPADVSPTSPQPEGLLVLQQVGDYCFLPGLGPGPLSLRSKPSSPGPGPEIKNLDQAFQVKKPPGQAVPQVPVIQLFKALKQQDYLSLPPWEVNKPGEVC

[2] = molecular target: T2, IL-5RαECD, extracellular domain (ECD) of the human IL-5 receptor α chain, soluble (human, UniProt Q01344 21-342); test: scintillation proximity competition assay, dimer against 20 pM [125I] IL-5 on IL-5Rα coated beads
T2 construct: extracellular domain; Captured through mAb 179 (anti-HPAP tail) in the plate, SPA and bead assays; also called soluble IL-5Rα; IL-5 receptor alpha chain extracellular domain
T2 sequence (Q01344 whole entry, looked up): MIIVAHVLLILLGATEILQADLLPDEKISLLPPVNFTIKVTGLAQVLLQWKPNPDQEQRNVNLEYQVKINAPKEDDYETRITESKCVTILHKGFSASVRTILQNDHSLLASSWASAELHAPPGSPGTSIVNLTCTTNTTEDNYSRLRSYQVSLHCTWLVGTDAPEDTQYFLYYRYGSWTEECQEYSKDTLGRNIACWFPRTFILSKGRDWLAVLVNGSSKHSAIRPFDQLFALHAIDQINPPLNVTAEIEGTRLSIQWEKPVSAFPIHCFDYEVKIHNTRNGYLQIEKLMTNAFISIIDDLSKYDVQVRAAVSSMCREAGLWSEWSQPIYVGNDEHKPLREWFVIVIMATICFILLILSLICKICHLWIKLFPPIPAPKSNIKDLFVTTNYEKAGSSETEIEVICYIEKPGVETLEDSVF
Experimental: (§1) Binding affinities of synthetic peptides for IL-5Rα were measured in a scintillation proximity assay (SPA) using radio-iodinated IL-5. Streptavidin coated SPA beads (Amersham) were suspended in IL-5 binding buffer (phosphate buffered saline, 0.1% bovine serum albumin, 0.2% NaN_3) at 2 mg beads/ml of buffer. Biotinylated mAb 179 was adsorbed onto the beads at a ratio of 2 μg Ab/mg beads by incubating the beads and antibody with agitation for at least 2 h. at 4°. The beads were pelleted at 2500 rpm and resuspended at 2 mg/ml in binding buffer. Soluble IL-5Rα was then adsorbed onto the beads by diluting a solution of soluble receptor harvest 1:500 into the bead suspension and incubating with agitation for 2 hr at 4°. The beads were again pelleted at 2500 rpm and resuspended at 2 mg/ml in binding buffer. Competition binding assays were carried out in 100 μl reactions in white polystyrene microtiter plates. […] IL-5 (Amersham). The plates were incubated at room temperature for 1 hour with agitation, then centrifuged for 5 min at 1500 rpm followed by scintillation counting on a Topcount instrument (Packard). […] IL-5 bound in the absence of any competitor. […] IL-5 bound in the presence of 30 nM IL-5. […] IL-5 binding by 50% (IC$50$). In each instance, the dimer has both intramolecular and intermolecular disulfide linkages as shown generically below: […]

[3] = molecular target: IL-5RαECD, extracellular domain (ECD) of the human IL-5 receptor α chain, soluble (human, UniProt Q01344 21-342); test: as above
Experimental: as §1

B1: dimer of (Ac)-EGYVCVEWARCPTCK-(NH2) (peptide)
peptide: Ac-EGYVCVEWARCPTCK-NH2
modifications: disulfide (positions not given here); also: dimer, intramolecular and intermolecular disulfide linkages, places not given here
Microphysiometer pIC50 (block of the TF-1 cell response to IL-5) [1]: 8.5

B2: dimer of (Ac)-EGYVCVEWAACPTCR-(NH2) (peptide)
peptide: Ac-EGYVCVEWAACPTCR-NH2
modifications: disulfide (positions not given here); also: dimer, intramolecular and intermolecular disulfides, places not given here
Microphysiometer pIC50 (block of the TF-1 cell response to IL-5) [1]: 6.9

B4: dimer of (H)-EGYVCVEWARCPTCR-(OH) (peptide)
peptide: H-EGYVCVEWARCPTCR-OH
modifications: disulfide (positions not given here); also: dimer, intramolecular and intermolecular disulfide linkages, places not given here
SPA pIC50 [2]: 8.4 | Microphysiometer pIC50 (block of the TF-1 cell response to IL-5) [1]: 9.6

B5: dimer of (H)-GYVCVEFARCPTCG-(NH2) (peptide)
peptide: H-GYVCVEFARCPTCG-NH2
modifications: disulfide (positions not given here); also: dimer, intramolecular and intermolecular disulfide linkages, places not given here
SPA pIC50 [3]: 6.1

B6: dimer of (H)-EGYVCVEFARCPTCR-(OH) (peptide)
peptide: H-EGYVCVEFARCPTCR-OH
modifications: disulfide (positions not given here); also: dimer, intramolecular and intermolecular disulfide linkages, places not given here
SPA pIC50 [2]: 6.8

B7: dimer of (H)-EGYVCVEWARCPTCK-(OH) (peptide)
peptide: H-EGYVCVEWARCPTCK-OH
modifications: disulfide (positions not given here); also: dimer, intramolecular and intermolecular disulfide linkages, places not given here
SPA pIC50 [3]: 8.7 | Microphysiometer pIC50 (block of the TF-1 cell response to IL-5) [1]: 9.2

B8: dimer of (Ac)-EGYVCVEWARCPTCR-(NH2) (peptide)
peptide: Ac-EGYVCVEWARCPTCR-NH2
modifications: disulfide (positions not given here); also: dimer, intramolecular and intermolecular disulfide linkages, places not given here
Microphysiometer pIC50 (block of the TF-1 cell response to IL-5) [1]: 8.4

B9: dimer of (H)-GYVCVEWARCPTCR-(OH) (peptide)
peptide: H-GYVCVEWARCPTCR-OH
modifications: disulfide (positions not given here); also: dimer, intramolecular and intermolecular disulfide linkages, places not given here
SPA pIC50 [3]: 8.2 | Microphysiometer pIC50 (block of the TF-1 cell response to IL-5) [1]: 8.4

B13: dimer of two chains of residues 36-50 of SEQ ID NO: 9 (structure only in drawing CHEM-US-00014) (peptide)
peptide: Ac-EGYV[Dap]VEWARCPTCR-NH2
modifications: cysteine pairing not given here; also: homodimer, link between chains only in drawing
Microphysiometer pIC50 (block of the TF-1 cell response to IL-5) [1]: 6.5

Next, values leading:

SPA pIC50 [2]: 9.1 | Microphysiometer pIC50 (block of the TF-1 cell response to IL-5) [1]: 9.6
Binder: H-TGGGDGYVCVEWARCPTCK-OH (disulfide 15-18; also: homodimer via interchain Cys9-Cys9 disulfide) [AF18748, synthetic dimer of (H)-TGGGDGYVCVEWARCPTCK-(OH)]

Microphysiometer pIC50 (block of the TF-1 cell response to IL-5) [1]: 9.1
B3: dimer of (H)-EGYVCVEWARCPTCG-(NH2) (peptide)
peptide: H-EGYVCVEWARCPTCG-NH2
modifications: disulfide (positions not given here); also: dimer, intramolecular and intermolecular disulfide linkages, places not given here

Microphysiometer pIC50 (block of the TF-1 cell response to IL-5) [1]: 9
B10: dimer of (Ahx)-EGYVCVEWARCPTCR-(NH2) (peptide)
peptide: [Ahx]EGYVCVEWARCPTCR-NH2
modifications: disulfide (positions not given here); also: dimer, intramolecular and intermolecular disulfide linkages, places not given here

SPA pIC50 [3]: 6.6
B11: dimer of (H)-EGYVCVEFARCPTCG-(NH2) (peptide)
peptide: H-EGYVCVEFARCPTCG-NH2
modifications: disulfide (positions not given here); also: dimer, intramolecular and intermolecular disulfide linkages, places not given here

Microphysiometer pIC50 (block of the TF-1 cell response to IL-5) [1]: 9.1
B12: dimer of (H)-EGYVCVEWARCPTCR-(NH2) (peptide)
peptide: H-EGYVCVEWARCPTCR-NH2
modifications: disulfide (positions not given here); also: dimer, intramolecular and intermolecular disulfide linkages, places not given here
